Here are results for one protein from article doi:10.1101/2022.07.26.501514, “Structural plasticity of Atg18 oligomers: organization of assembled tubes and scaffolds at the isolation membrane” (bioRxiv, 2022).

The data set concerns the molecule itself. Briefly: cryo-EM structure; helical tubes of Atg18, 20 uM in tube buffer (20 mM HEPES, 100 mM KAc, 1 mM DTT, pH 7.2); segmented helical reconstruction, rise 19.4 A, rotation 70.0 degrees.

B1: Atg18-PR72AA (Atg2 binding mutant) (natural protein, Saccharomyces cerevisiae, UniProt P43601 1-500, looked up)
chain: MSDSSPTINFINFNQTGTCISLGTSKGFKIFNCEPFGKFYSEDSGGYAIVEMLFSTSLLALVGIGDQPALSAARLRIINTKKHSIICEVTFPTSILSVKMNKSRLVVLLQEQIYIYDINTMRLLHTIETNPNPRGLMAMSPSVANSYLVYPSPPKVINSEIKAHATTNNITLSVGGNTETSFKRDQQDAGHSDISDLDQYSSFTKRDDADPTSSNGGNSSIIKNGDVIVFNLETLQPTMVIEAHKGEIAAMAISFDGTLMATASDKGTIIRVFDIETGDKIYQFRRGTYATRIYSISFSEDSQYLAVTGSSKTVHIFKLGHSMSNNKLDSDDSNMEEAAADDSSLDTTSIDALSDEENPTRLAREPYVDASRKTMGRMIRYSSQKLSRRAARTLGQIFPIKVTSLLESSRHFASLKLPVETNSHVMTISSIGSPIDIDTSEYPELFETGNSASTESYHEPVMKMVPIRVVSSDGYLYNFVMDPERGGDCLILSQYSILMD
notes: Atg18, Saccharomyces cerevisiae, Uniprot ID P43601, with P72 and R73 changed to alanines; also called Atg18-P72R73; Atg18-PR72R73; source: E. coli BL21(DE3), purified (Ni-NTA, TEV cleavage, second Ni-NTA, gel filtration Superdex 200); not shown: 6xHis, N-terminal, cleaved
For B1, the binding result is given as “binds”.
